Assay results reported in the supplement of paper PMC12042874.
± gives the uncertainty stated by the source.

Assay: amyloid nucleation score (Sup35N fusion, yeast selection) (log enrichment); library NNK2; higher = more nucleation; inactive = no reads after selection
Summary of the method: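 Peptides of 20 random codons fused to Sup35N were expressed in psi-negative yeast, induced 24 hours with 100 μM copper sulfate, then grown 7 days at 30°C on medium lacking adenine and uracil. Input and output plasmid inserts were Illumina-sequenced. Nucleation score is the DiMSum log enrichment of output over input reads, centred on the mode score of non-aggregating sequences, excluding sequences with under 100 input reads. Random libraries had three technical output replicates.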

Substance	amyloid nucleation score
VFNWTNLHYLMAQESVMGY	0.148 ± 0.35
VFQQFNS	0.244 ± 0.62
VFRISLRSSLYML	4.13 ± 0.099
VFSCYSVQHRRLSWMSCD	-0.385 ± 0.41
VFSLCGIYMRGHYSYWCYNK	inactive
VFTGNLICYMDGGTGFSCFQ	9.018 ± 0.029
VFVRRVGPQLFDPRSSNGVD	0.951 ± 0.81
VFWNIAFNSYMQRSCYIVVF	2.12 ± 0.14
VFYSWKKLVSVLTSRYGFHV	-0.965 ± 0.78
VGCCVQGNLYSSFLAMFVA	7.352 ± 0.028
VGCFTRSIGHAM	0.257 ± 0.23
VGDQF	inactive
VGFLW	2.22 ± 0.13
VGFSLLNKTLCFGDRCTNIS	inactive
VGGRSGE	-0.159 ± 0.26
VGIEEVIH	-0.249 ± 0.23
VGLFGWRGKEGF	-0.033 ± 0.76
VGLWLTRVPPFVYGYRGSVS	0.165 ± 1
VGPFSDH	-0.472 ± 0.79
VGSFSTVGCR	0.003 ± 0.36
VGSLYICDLAPGKHKYCSVV	0.266 ± 0.56
VGSNKGAIIGLMVGGMVVIA	2.33 ± 0.21
VGTISVFIIFHASHVGILHS	-1.65 ± 0.53
VGTWATFYVLTCKGEFDPGL	7.83 ± 0.083
VGVYICFILGH	3.56 ± 0.14
VGYLRELLYAEGT	-0.476 ± 0.35

Substance	amyloid nucleation score
VHEPAQV	0.352 ± 0.35
VHFASPRRACRFIRRRYTTH	3.77 ± 0.11
VHLANSMLY	3.15 ± 0.047
VHQRYRSVRCWNWIVM	-0.545 ± 0.48
VHSLFVNIRMLCTDGFASTG	4.479 ± 0.038
VHVVSRAQTCEFF	0.956 ± 0.67
VIDGNKDGSMTFPVQGDALR	1.2 ± 0.48
VIDHLRCIETSVWGVVVWRI	-0.148 ± 0.35
VIFSGFFYISPTADPHDSFI	inactive
VIFVRYWGVDYHLADLVIN	-0.563 ± 0.55
VIIGIFCNSKSS	4.33 ± 0.1
VIKKQCCHTYSVLTFRILNC	0.151 ± 0.63
VIKMSVNNVELVGMDHYSCV	0.606 ± 0.23
VILNYVIYL	10.08 ± 0.071
VINGVHLSRVLYNPILEFIT	inactive
VINLDKLIFVLEDNCIVFWE	6.374 ± 0.023
VINSLMWKFTVIMRGVMNRI	0.12 ± 0.25
VINVKEYVGYIVSKVDKGGP	4.24 ± 0.049
VIPYILTCWVYFIDCLWRRK	0.948 ± 0.66
VIPYVIQSYWMGMN	-1.56 ± 0.75
VISGGFMF	4.63 ± 0.069
VITLRGAPYTEWLLRALLAS	0.734 ± 0.81
VIWYLRMVSTCNERGVKGIE	inactive
VIYSYMSGIVYGVMRSSPFW	inactive
VKDDTSHPYRGFYYRVIRRN	1.08 ± 0.16
VKFAGWTCSL	-0.314 ± 0.62

Substance	amyloid nucleation score
VKFCVWCGD	7.039 ± 0.06
VKLIETSLLSFLIE	-0.33 ± 0.76
VKMMWNCSLVDALATRGNVV	0.505 ± 0.54
VKTRCVVHCMNNFPGCMIEL	6.887 ± 0.065
VLAILVTNLRLSSWFQSHMM	0.837 ± 0.52
VLCTRRLPLYHSSNDQ	0.128 ± 0.32
VLDVVLYPGKF	0.176 ± 0.26
VLEKRFIRL	-0.785 ± 0.46
VLGYPKTSTVHALPHTTMLP	0.943 ± 0.53
VLHCHWTGFSRSTCVHLVHF	3.63 ± 0.084
VLIALKLFWIVQWYICAICV	-0.099 ± 0.39
VLLEIY	-0.384 ± 0.65
VLLLGVSVRHFKGLGVPTKR	5.06 ± 0.065
VLLSITSRRVMPTSKI	0.594 ± 0.81
VLMEWTLGVTHDNISDDYSD	2.58 ± 0.082
VLNDFFWEHLPMGHNVGLTL	-0.252 ± 0.55
VLNGNLSFLSAVWFGKM	6.729 ± 0.053
VLNIARVRHDKG	3.7 ± 0.051
VLNITEIYFVG	8.125 ± 0.051
VLRGSFKGFFYRWIKCGFEW	-1.24 ± 0.64
VLRYLDFDYRLELFIYVMHR	-1.48 ± 1.1
VLSDL	-1.18 ± 0.75
VLSNNFWRMSNFWVRMRHTL	-0.25 ± 0.63
VLSSRLASIEGNKSSVGFYG	inactive
VLSYMFVYETMSEIFTFLVG	-0.586 ± 0.49
VLSYRVHLEPARCFSGGYCY	0.512 ± 0.19

Substance	amyloid nucleation score
VLTLPKRNHVHL	0.874 ± 0.35
VLVLDR	3.46 ± 0.073
VLWNKSALNSKNSRTG	2.57 ± 0.1
VLYQGALRYGNVRRGHLIRF	0.105 ± 1.1
VMCFEYYVYYDYDYTCTFNY	0.842 ± 0.12
VMCFNAVSLTFVFRDMTSYY	8.804 ± 0.05
VMCSWVGDLWFCESIRAQEV	8.035 ± 0.047
VMCTC	0.71 ± 0.48
VMDLDAGTCWCISISGLTVR	0.533 ± 0.35
VMFILVYTLFP	0.068 ± 0.65
VMFLFGGCTDNS	0.382 ± 0.8
VMGGDVYTAFTDAEDVDSWG	0.398 ± 0.22
VMSDGMYTGKAYSLVLDMRI	inactive
VMTFMVTRTD	6.111 ± 0.037
VMTYVEQVLGNVSVLIAIIT	0.015 ± 0.33
VMVGLALYLKARGSNVDCGL	3 ± 0.17
VMWLSVRL	0.535 ± 0.44
VNAEGTVMQSWHCHCDMSVL	6.245 ± 0.043
VNCIASSFSLPRRTLSNSMD	inactive
VNDCYIILISIQALKGPICF	0.465 ± 0.8
VNDKFHFILF	0.019 ± 0.8
VNDLLTPCGIHLQPVWDYES	-0.013 ± 0.49
VNGVSMMHKIVLVNR	0.058 ± 1
VNHLYYCFCTLITHEVRVVS	5.363 ± 0.034
VNIILASMHVLLDGCS	-1.08 ± 0.64
VNIVSIVYKGDNN	7.72 ± 0.075

Substance	amyloid nucleation score
VNLPD	0.15 ± 0.56
VNMLTGLSKDK	-0.142 ± 0.23
VNMYSWVKVCWEILYTDRAG	-0.906 ± 0.41
VNREYLLAVTVILQNVKTEE	8.609 ± 0.036
VNSKNYV	-0.075 ± 0.39
VNTTDKWKVSEYKYQND	0.254 ± 0.19
VNVCTYTWLHVINERFTFQW	6.192 ± 0.045
VNYVDGWV	1.45 ± 0.34
VPIKALLPHSKFGNQSRFNY	0.438 ± 0.4
VPSGSLD	inactive
VQDAFVYFNAELRWYDILGQ	-0.201 ± 0.37
VQEERAFKWVR	0.44 ± 0.42
VQGTL	-0.718 ± 0.39
VQPVLCIVSCNRLNRQRAEM	-0.498 ± 1.1
VQRYRVFVAICFCGEMQRGF	inactive
VQSGWTSKGVLPQVANRTLR	0.827 ± 0.44
VRATCWS	-0.418 ± 0.55
VREYYRVERGSFGRISGGCN	-0.748 ± 0.78
VRIIETGRC	0.136 ± 0.39
VRLFLPHIYKMSLRDGGFEP	-0.349 ± 0.63
VRLGRWLFTFSANTDTLANM	-0.729 ± 1.1
VRLHGLLHANMGKTFMLLLS	-0.486 ± 0.56
VRMEVIFYC	2.54 ± 0.2
VRMNPITAGLCVQCLHTQRF	-0.654 ± 1
VRNKMSGPLMFIIGLDLSCN	inactive
